{"source": "patent US20260132178A1", "key": {"[1]": {"target": "IL10 receptor (UniProt Q13651)", "sequence (Q13651 22-578 limits assumed, chain 1 of 2)": "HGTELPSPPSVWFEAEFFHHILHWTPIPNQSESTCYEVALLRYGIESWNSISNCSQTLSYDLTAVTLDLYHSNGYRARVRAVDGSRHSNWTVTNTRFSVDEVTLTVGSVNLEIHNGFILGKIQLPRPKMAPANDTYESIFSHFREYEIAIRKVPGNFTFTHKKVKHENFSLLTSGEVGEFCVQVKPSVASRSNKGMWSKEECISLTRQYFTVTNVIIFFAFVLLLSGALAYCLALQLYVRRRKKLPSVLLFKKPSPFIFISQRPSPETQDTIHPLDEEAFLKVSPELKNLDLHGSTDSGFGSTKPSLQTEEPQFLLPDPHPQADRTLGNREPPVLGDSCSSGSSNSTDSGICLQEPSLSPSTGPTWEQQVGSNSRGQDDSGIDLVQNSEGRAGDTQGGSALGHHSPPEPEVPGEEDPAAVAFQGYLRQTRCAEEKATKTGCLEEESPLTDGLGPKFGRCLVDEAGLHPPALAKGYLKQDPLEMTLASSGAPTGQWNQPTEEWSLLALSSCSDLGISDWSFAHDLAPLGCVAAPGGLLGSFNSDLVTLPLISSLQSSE", "sequence (Q08334 20-325 limits assumed, chain 2 of 2, further chain)": "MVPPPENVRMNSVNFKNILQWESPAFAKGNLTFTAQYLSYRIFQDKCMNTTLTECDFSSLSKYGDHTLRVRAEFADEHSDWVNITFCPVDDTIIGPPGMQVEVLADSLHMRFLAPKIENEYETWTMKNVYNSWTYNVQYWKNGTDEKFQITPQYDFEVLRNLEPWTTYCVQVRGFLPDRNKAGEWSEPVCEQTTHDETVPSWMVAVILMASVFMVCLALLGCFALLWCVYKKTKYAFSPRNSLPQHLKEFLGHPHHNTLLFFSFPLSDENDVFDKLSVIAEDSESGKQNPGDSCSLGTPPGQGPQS", "assay": "cell-based or functional assay"}, "[2]": {"target": "IL4 (type II) receptor (UniProt P24394)", "sequence (P24394 26-825 limits assumed, chain 1 of 2)": "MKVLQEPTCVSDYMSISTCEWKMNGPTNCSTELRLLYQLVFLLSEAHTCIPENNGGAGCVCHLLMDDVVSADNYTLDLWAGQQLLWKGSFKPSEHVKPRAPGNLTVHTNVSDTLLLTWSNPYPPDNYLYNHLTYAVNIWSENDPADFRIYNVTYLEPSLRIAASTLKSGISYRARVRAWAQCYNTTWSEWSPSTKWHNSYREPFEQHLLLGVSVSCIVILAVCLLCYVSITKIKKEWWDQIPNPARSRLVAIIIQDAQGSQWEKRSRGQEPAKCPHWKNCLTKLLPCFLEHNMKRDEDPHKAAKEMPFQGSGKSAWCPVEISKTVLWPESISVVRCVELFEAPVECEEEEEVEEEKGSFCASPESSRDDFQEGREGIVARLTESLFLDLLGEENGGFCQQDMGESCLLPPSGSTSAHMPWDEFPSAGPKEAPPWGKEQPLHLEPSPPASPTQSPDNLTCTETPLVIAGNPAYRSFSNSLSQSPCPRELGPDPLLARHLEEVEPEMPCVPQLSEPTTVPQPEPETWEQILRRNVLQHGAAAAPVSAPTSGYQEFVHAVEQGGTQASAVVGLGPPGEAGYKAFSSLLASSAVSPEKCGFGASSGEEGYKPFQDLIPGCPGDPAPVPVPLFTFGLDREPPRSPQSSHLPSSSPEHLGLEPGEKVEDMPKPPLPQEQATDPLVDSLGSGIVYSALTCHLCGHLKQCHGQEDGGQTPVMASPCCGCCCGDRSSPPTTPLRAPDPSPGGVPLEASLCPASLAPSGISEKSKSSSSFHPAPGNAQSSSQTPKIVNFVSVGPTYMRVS", "sequence (P78552 22-427 limits assumed, chain 2 of 2, further chain)": "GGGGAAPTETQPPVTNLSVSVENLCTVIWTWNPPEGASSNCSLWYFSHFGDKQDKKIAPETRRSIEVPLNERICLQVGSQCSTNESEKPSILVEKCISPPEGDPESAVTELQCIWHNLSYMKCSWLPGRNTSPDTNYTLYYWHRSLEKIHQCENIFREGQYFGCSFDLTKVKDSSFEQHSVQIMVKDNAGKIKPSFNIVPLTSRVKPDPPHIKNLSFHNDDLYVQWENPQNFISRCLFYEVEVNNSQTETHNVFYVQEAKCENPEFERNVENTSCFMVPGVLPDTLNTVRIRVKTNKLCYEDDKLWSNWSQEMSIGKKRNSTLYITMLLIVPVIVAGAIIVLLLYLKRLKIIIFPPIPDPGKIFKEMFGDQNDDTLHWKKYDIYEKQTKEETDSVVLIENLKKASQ", "assay": "cell-based or functional assay"}}, "data": [{"substance": "IL10 (from UniProt P22301 19-178) (ligand)", "values": [{"measurement": "HEK-Blue IL10 EC50 (STAT-3 mediated SEAP expression)", "setting": "[1]", "result": 0.0264, "unit": "nM"}]}, {"substance": "IL13 (from UniProt P35225 33-146) (ligand)", "values": [{"measurement": "HEK-Blue IL4/13 EC50 (STAT6-induced SEAP expression)", "setting": "[2]", "result": 0.033, "unit": "nM"}]}]}
